Laboratory results taken from patent US20210137977A1 (UNIVERSITY OF SOUTHERN CALIFORNIA, published 2021).

T1: BCMA (human, UniProt Q02223 1-184)
T1 construct: whole, on cells; also called human BCMA; BCMA on L363 cells
T1 sequence (looked up): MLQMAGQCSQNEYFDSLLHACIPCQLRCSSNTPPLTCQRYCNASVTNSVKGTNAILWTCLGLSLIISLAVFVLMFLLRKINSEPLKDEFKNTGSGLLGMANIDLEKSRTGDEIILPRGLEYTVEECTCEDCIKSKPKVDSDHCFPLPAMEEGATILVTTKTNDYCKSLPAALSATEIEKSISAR

T2: human MPL (Thrombopoietin Receptor) (human, UniProt P40238 26-635)
T2 construct: whole, on cells; also called MPL on HEL.92.1.7 cells
T2 sequence (looked up): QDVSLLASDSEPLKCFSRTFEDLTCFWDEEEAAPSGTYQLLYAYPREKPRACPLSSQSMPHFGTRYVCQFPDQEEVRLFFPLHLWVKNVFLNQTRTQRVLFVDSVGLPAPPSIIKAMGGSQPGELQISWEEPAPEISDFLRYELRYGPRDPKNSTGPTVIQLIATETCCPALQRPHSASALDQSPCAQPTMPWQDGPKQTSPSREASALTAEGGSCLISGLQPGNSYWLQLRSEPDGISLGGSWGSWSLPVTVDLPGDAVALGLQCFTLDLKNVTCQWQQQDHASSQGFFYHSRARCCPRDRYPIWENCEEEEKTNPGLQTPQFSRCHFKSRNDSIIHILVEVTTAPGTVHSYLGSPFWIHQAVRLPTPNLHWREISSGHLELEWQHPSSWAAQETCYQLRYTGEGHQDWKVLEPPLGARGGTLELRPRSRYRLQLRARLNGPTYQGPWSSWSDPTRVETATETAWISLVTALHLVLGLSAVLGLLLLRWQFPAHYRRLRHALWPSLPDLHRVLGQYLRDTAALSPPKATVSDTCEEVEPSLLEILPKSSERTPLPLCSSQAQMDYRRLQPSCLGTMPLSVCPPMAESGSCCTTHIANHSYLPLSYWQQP


Tests used:
BCMA = molecular target: T1, BCMA; assay: CAR stably expressed in BCMA-bearing L363 and U266 cell lines; detection reagent not named
[1] = molecular target: T2, human MPL (Thrombopoietin Receptor); assay: CAR expressed in MPL-bearing HEL.92.1.7 cells; staining with MPL antibody (1.6.1) or 161-scFv-Nluc

Binder | binding result (BCMA) | binding result [1]
CD8SP-BCMA-huC13-F12-BBz (other, Second generation CAR (41BB, CD3z)) DIVLTQSPATLSLSPGDRATLSCRASESVTILGSHLIYWYQQKPGQAPRLLIQLASNVQTGIPARFSGSGSRTDFTLTISSLEPEDFAVYYCLQSRTIPRTFGQGTKLEIKRGGGGSGGGGSGGGGSQVQLVQSGSELKKPGESVKISCKASGYTFTHYSMNWVRQAPGQGLEWMGRINTETGEPLYADDFKGRFVFSLDTSASTAYLQISSLKAEDTAVYYCSNDYLYSLDYWGQGTLVTVSSTRAKPTTTPAPRPPTPAPTIASQPLSLRPEACRPAAGGAVHTRGLDFACDIYIWAPLAGTCGVLLLSLVITLYCKRGRKKLLYIFKQPFMRPVQTTQEEDGCSCRFPEEEEGGCELRVKFSRSADAPAYQQGQNQLYNELNLGRREEYDVLDKRRGRDPEMGGKPRRKNPQEGLYNELQKDKMAEAYSEIGMKGERRRGKGHDGLYQGLSTATKDTYDALHMQALPPR | binds | 
CD8SP-MPL-hu-161-2-BBz (other, Second generation CAR from a humanized MPL antibody (41BB, CD3z); Entry includes the CD8 signal peptide) DVVMTQSPSSLSASVGDRVTITCMASEDIYIRLAWYQQKPGNAPKLLIYAATSLETGVPSRFSGSGSGTDFTLTISSLQPEDFATYYCQQYWSSPWTFGGGTKVEIKGGGGSGGGGSGGGGSQVQLQESGPGLVKPSQTLSLTCTVSGYSITSDYTWNWIRQPPGNGLEWIGYITYSGSTSYNPSLKSRVLISVDTSKNQVSLKLSSVTAADTAVYYCARLGRRYTMDYWGQGTTVTVSSTRAKPTTTPAPRPPTPAPTIASQPLSLRPEACRPAAGGAVHTRGLDFACDIYIWAPLAGTCGVLLLSLVITLYCKRGRKKLLYIFKQPFMRPVQTTQEEDGCSCRFPEEEEGGCELRVKFSRSADAPAYQQGQNQLYNELNLGRREEYDVLDKRRGRDPEMGGKPRRKNPQEGLYNELQKDKMAEAYSEIGMKGERRRGKGHDGLYQGLSTATKDTYDALHMQALPPR |  | binds
